This series is described as follows: soluble on expression in E. coli; label from the status in PepcDB or PDB records.
As to “MPGFNYGGDQDEVYTPYRRVLVTGATGLLGRAVYKEFKNNDWDALGCGYNRARPFFLKCNLLDEDAVRGVIQSFQPHVIVHCAAERRPDVVERHTEAAMNLNVHACATLAKEAGGSFLIYISTDYVFDGRNPPYGENDAPNPLNLYGKSKLEGEREILRHCPGAAVLRVPILFGEVEKVEESAVTVLFERVQEGAESCTIDHCQQRFPTYTNDVARVCRNMAERALQDQSLRGIFHYSAKEQMTKYEMTCAIADAFNLPSSHLIPMTEQPAGAGAQRPQNAQLECSRLELLGLSVESTPFKNAIRDSLWPFQHDKRWRQTVFH”, the “soluble on expression in E. coli” value is listed as “soluble”.

As to “MKHILIIGATGQIGSELTMELRRRYGNTNVVAGYIQGAEPKGELKESGPSAVVDVTNGEMIESVVKEYHIDTIYNLAALLSVVAESKPKLAWKIGIDGLWNVLEVAREQGCAVFTPSSIGSFGASTPHTQTPQDTIQRPRTMYGVTKVTTELLSDYYFNKYGVDTRAVRFPGIISNVTPPGGGTTDYAVDIYYSAVRGEKFVCPIKEGTLMDMMYMPDALNAAIMLMEADPTKLIHRNAFNIASMSFDPETIFHAIKKHVPAFEMIYDVDPLKQRIADSWPDSLDDTCAREEWGWKPAYDLESMTVDMLEKLREKLKK”, the “soluble on expression in E. coli” value is given as “not soluble”.

In the case of “MSTQIKVTPEQLEQAAKTVKNTRSSLEYIHQDLYSQTEYIASQWSGASSDRFYQMFNEAKPMMFNILQELDKIAVELERAAVKFREADELYGGNLVDSDIQEGAMCGKIPPKSEESFFNNKDLNAAWTGISTGFVDGAVDAWEGLISLGDKETWLNMRDAIVNYEETIPAALNALSDSFVNNLWHGDMESREHYAAYGIATLGLGLLGDKGLSKAGQVGKGAAITGFTKGKSLVTNSPAYRNALHILNNYEFKAGNHLSYAGVGSIQKYLQKAAPYTYEGPNGPKTIRLRLGELAGDKHPVTGIRYDLDGFPIFKALSEVKLKEADFKKSRPTHDRICSKALYEQIMKDPKLAAKFTEEEIELFKLGEVPENYTWHHHQEAGRMQLVDYETHRKTGHTGGYKIWGKDSDK”, the “soluble on expression in E. coli” value is listed as “not soluble”.

In the case of “MGSDKIHHHHHHMKKVLTAALLMTAPFMANAGADFVKGDKTFAGEAELGATLTTGNTDTSSYKGRLNFKHELGDWENQYLLEGLYKEDTGAVTAKRYLAGAQGNYKMNDRSYWFANANYEVDPFTGYDYTLSGATGYGHRLLDTSKTFLDVEIGPGYIYQRLDSEQALLEGTDSNDSVVAHGVINFETEITETSKFQQRFVADYGEKLDARSETSLTANIIGALAMKFAIIVRYNSEPLDDKKSTDTETNMTLLYSF”, the “soluble on expression in E. coli” value is on record as “not soluble”.

As to “MSLQIDEVSKKLNISKSMIRYYEEKGLINISRNQNNYREFNQTVYTTLKLIKDLKRLNLSLEEIKYIVNLFNKPTSKECNIQSTKYLDRIIKDYKRSINEQINILNRLEQVKELSQDMKFEENKTEILNMLAGVKEYDEGHHHHHH”, the “soluble on expression in E. coli” value was “not soluble”.

Consider “MGSDKIHHHHHHMPAISVQDVSKRFRVFAKPADRLKAAVRHRIGGLAKLVPARLLGTEGASEFHALQHVSFHVQKGETIGIIGRNGSGKSTLLQIICGTLTPSGGRVAINGRVAALLELGAGFNPEFTGRENVYMNAALLGLSKAQIEERLDAIFAFADIGGFVDQPVKTYSSGMYVRLAFAVIAHVDADVLVIDEALAVGDAFFTQKCMRFLRAFMERGTVLFVSHDTNAVVNLCTRVVWLDKGRVREIGPAKDVCDSYLEAFYEEQHCASGRSVRALERSSVVRAIAEGDMRDQRALLINASKLRNDVELFQFTADAKNFGLGGASIEHVGIEDGTGAPLNWVVGGEIVCIRIAVKALQNLERAIVGFIVRDRLGQNLFGDNTYLTTLNEPFAVAAGESFSVRFGFRMPVLPVGDYSVTVAVADGSQSDHVIHQWLHDAVLLKSHSTSVSTGLIGIPMHEIVLERDTLNEVGAAQ”, for which the “soluble on expression in E. coli” value is reported as “not soluble”.

For “MSLSNKSLTTGTAVDVLAGLPVKREASATGYSRTADFGAAWLDVDGNNCDTRNDILHRDLTDAVQRGGCKILSGTLNDKYSGESIHFVRGAKTSALVQVDHIVALKNAWVTGAQQLTQAQRVSFANDPLNLIAVDAHSNEQKSSGDAATWLPANKSSRCEYVARQISVKATYGLWVTPAEKSAMMDILADCSGQMAESSTFTEGHHHHHH”, the “soluble on expression in E. coli” value is reported as “soluble”.

With “MSLIEIESRELADIPVLHAYPVGQKDTPLPCVIFYHGFTSSSLVYSYFAVALAQAGLRVIMPDAPDHGSRFSGDAARRLNQFWQILLQSMQEFTTLRAAIAEENWLLDDRLAVGGASMGAMTALGITARHPTVRCTASMMGSGYFTSLARSLFPPLIPETAAQQNEFNNIVAPLAEWEATNHLEQLSDRPLLLWHGLDDDVVPADESLRLQQALSETGRDKLLTCSWQPGVRHRITPEALDAAVTFFRQHLEGGSHHHHHH”, the “soluble on expression in E. coli” value is given as “soluble”.

In the case of “MGSDKIHHHHHHMCRWAAYIGPPVHLDEVVCKPEHSLVAQSVHAFECKTQTNADGFGIAWYDSREEPGLYRDTHPAWSDPNLKSITHQVRSGLFLAHVRASTGTATSRNNCHPFTHGCWSFMHNGQVGGFENFRRRADMIIPDELYSARKGATDSEALFLIAIAEGLYEDPKGAMQRAVGRLEALSREFGHTPHMRIGAAFSCGGALYAVRYASDHLAPTVYSSKSADGTGRLVVSEPLHKGECWEAVPAGSFCRFTADDTEIEDFVPQF”, the “soluble on expression in E. coli” value is “not soluble”.

For “AHHHHHHGSAQLAGQPILILPEGTQRYVGRDAQRMNILAARIVAETIRTTLGPKGMDKMLVDSLGDIVITNDGATILDEMDIQHPAAKMMVEVAKTQDKEAGDGTTTAVVIAGELLRKAEELLDQNIHPSIIIKGYTLAAQKAQEILENIAKEVKPDDEEILLKAAMTSITGKAAEEEREYLAKLAVEAVKLVAEKEDGKYKVDIDNIKLEKKEGGSVRDTQLIRGVVIDKEVVHPGMPKRVEKAKIALINDALEVKETETDAEIRITSPEQLQAFLEQEERMLREMVEKIKEVGANVVFVQKGIDDLAQHYLAKYGIMAVRRVKKSDMEKLAKATGAKIVTNIRDLTPEDLGYAELVEERKVAGESMIFVEGCQNPKAVTILIRGGTEHVVDEVERALEDAIKVVKDILEDGKILAGGGAPEIELAIRLDEYAKEVGGKEQLAIEAFAEALKVIPRTLAENAGLDPIETLVKVIAAHKEKGPTIGVDVYEGEPADMLERGVIEPLRVKKQAIKSASEAAIMILRIDDVIAASKLEKEKEKEGEKGGGSEDFSSDLD”, the “soluble on expression in E. coli” value was “not soluble”.

“MKMIQFWFDFASTYSYPAAMQIRQLKDEYRFSLHPFLLGGIFQKQGLNDSPFNAYPVKGQYMWRDLERICQKLDLKFHRPVLFPQNGLLAARIACQYASAPWIFDFICSVYQANFVQNLDIGQPETISQILQNMQLDCNDIIMTSTTDTAKQTLKQNGMIAESLHIFGAPSFVVENELFWGQDRLQDAIDWSQR”: the “soluble on expression in E. coli” value is reported as “not soluble”.

Take “MADDPLYLDRTGEWAGLWWLPEIPDEKVPGFLRYDAECGLLLSLIGAFEDRVTSNPSPGVTAYHEGTRTWEVIHGVAEQREITLFDTIPISSKRTIGARVESPAKQTVTASVAIIGAHVRSEGDPQFAGVEVSVEDLGRWAGSSVFEGLLGAPDGNFDGTGSISVKPVEAQSVLVGGTEYRLVHTHTLPYFDQRKSETVGRMRDTVSIRIVPASPFSLNAALHEASLVQDLISLATHQSAGVIWLRVEVARSESQLPDGRTSPRRRADVLYSPVALGKHDAKPVDHHRMFFTCNSLPFEEVLPRWCETHVRLQAATNMILGLRYAPARFVENNLLTAVGAAEALHRNLRIGEKPFSKAEFTAMRGAMLDQVPSEHRERFKAAIRNDPTLRDRLHALAARPDEEAIGQLIPDVDYWAKRTTRARNDLAHEGRTPNHSFEELVAIVEVTTAVVILNVLQELGLSAERQREIVLTHPKLRHTVGLSREWLVPSKSD”: the “soluble on expression in E. coli” value was “not soluble”.

For “MSKAGASLATCYGPVSADVMAKAENIRLLILDVDGVLSDGLIYMGNNGEELKAFNVRDGYGIRCALTSDIEVAIITGRKAKLVEDRCATLGITHLYQGQSNKLIAFSDLLEKLAIAPENVAYVGDDLIDWPVMEKVGLSVAVADAHPLLIPRADYVTRIAGGRGAVREVCDLLLLAQGKLDEAKGQSI”, the “soluble on expression in E. coli” value is “soluble”.

Turning to “MGSDKIHHHHHHMTLFLQKGYEETTMREIVHKSGRSKGAIYHHFSSKQEILNFQISLEMDNLRQCLDALISNNQLNAQQKFKGILTYFFENPSLTELTRLHWAEKLPFALLETLKNSLTVVAQYIEAIIQQEIKEKKLNCQYSKELSEILVLLFDIWLDPSIVDFDYQTACQRIDFIALLLEKFDLPLLDENDKNKLKNGLKHYDEKNTL”, the “soluble on expression in E. coli” value was “not soluble”.

Source of the values: the DeepSol protein solubility set.
